Biological target: Cu,Zn superoxide dismutase (SOD1) from Chionodraco hamatus (Chionodraco hamatus)
Experiment: SEC; gel exclusion chromatography on a Sephadex G-75 column against standards (bovine serum albumin, ovalbumin, chymotrypsinogen A, cytochrome c); native mass compared with the monomer mass from SDS-PAGE with 2-mercaptoethanol and MALDI-TOF

stoichiometry N: 2
Substance: Cu,Zn superoxide dismutase (SOD1) from Chionodraco hamatus (enzyme)
